In FireProtDB (doi:10.1021/bi00123a006):

B1: Ribonuclease, P00648 (parent)
chain: MMKMEGIALKKRLSWISVCLLVLVSAAGMLFSTAAKTETSSHKAHTEAQVINTFDGVADYLQTYHKLPDNYITKSEAQALGWVASKGNLADVAPGKSIGGDIFSNREGKLPGKSGRTWREADINYTSGFRNSDRILYSSDWLIYKTTDHYQTFTKIR

Variants of: B1
Details: Bacillus amyloliquefaciens, 25 °C, Urea, NMR, NaCl 1 M, structure 1BNI, whole UniProt chain shown

H65G W141L
unfolding free energy (pH 5.9, MES 30 mM): 8.11 kcal/mol | ddG of mutation (higher = less stable) (pH 8.9, Tris 30 mM): -0.33 kcal/mol | unfolding free energy (pH 8.9, Tris 30 mM): 8.38 kcal/mol

W141L
unfolding free energy (pH 5.9, MES 30 mM): 7.67 kcal/mol | ddG of mutation (higher = less stable) (pH 8.9, Tris 30 mM): 0.64 kcal/mol | unfolding free energy (pH 8.9, Tris 30 mM): 7.41 kcal/mol

G81H
ddG of mutation (higher = less stable) (pH 4.4, Sodium acetate 30 mM): 2.6 kcal/mol | unfolding free energy (pH 4.4, Sodium acetate 30 mM): 5.53 kcal/mol | ddG of mutation (higher = less stable) (pH 8.9, Tris 30 mM): 3.15 kcal/mol | unfolding free energy (pH 8.9, Tris 30 mM): 4.9 kcal/mol

D101N
ddG of mutation (higher = less stable) (pH 4.4, Sodium acetate 30 mM): 2.65 kcal/mol | unfolding free energy (pH 4.4, Sodium acetate 30 mM): 5.48 kcal/mol | ddG of mutation (higher = less stable) (pH 8.9, Tris 30 mM): 2.32 kcal/mol | unfolding free energy (pH 8.9, Tris 30 mM): 5.73 kcal/mol

T53H
ddG of mutation (higher = less stable) (pH 4.4, Sodium acetate 30 mM): 2.65 kcal/mol | unfolding free energy (pH 4.4, Sodium acetate 30 mM): 5.48 kcal/mol | ddG of mutation (higher = less stable) (pH 8.9, Tris 30 mM): 1.56 kcal/mol | unfolding free energy (pH 8.9, Tris 30 mM): 6.49 kcal/mol

T73H D101N
ddG of mutation (higher = less stable) (pH 4.4, Sodium acetate 30 mM): 5.74 kcal/mol | unfolding free energy (pH 4.4, Sodium acetate 30 mM): 2.39 kcal/mol | ddG of mutation (higher = less stable) (pH 8.9, Tris 30 mM): 4.27 kcal/mol | unfolding free energy (pH 8.9, Tris 30 mM): 3.78 kcal/mol
